Assays:
[1] = molecular target: long carboxyl terminus (CTL) of rat Cav1.3L (rat)
[2] = molecular target: long carboxyl terminus (CTL) of rat Cav1.3L (rat); remark: listed apart in the source
[3] = molecular target: long carboxyl terminus (CTL) of rat Cav1.3L (rat); remark: listed apart in the source

Sequence of long carboxyl terminus (CTL) of rat Cav1.3L (rat) (P27732 1460-2155): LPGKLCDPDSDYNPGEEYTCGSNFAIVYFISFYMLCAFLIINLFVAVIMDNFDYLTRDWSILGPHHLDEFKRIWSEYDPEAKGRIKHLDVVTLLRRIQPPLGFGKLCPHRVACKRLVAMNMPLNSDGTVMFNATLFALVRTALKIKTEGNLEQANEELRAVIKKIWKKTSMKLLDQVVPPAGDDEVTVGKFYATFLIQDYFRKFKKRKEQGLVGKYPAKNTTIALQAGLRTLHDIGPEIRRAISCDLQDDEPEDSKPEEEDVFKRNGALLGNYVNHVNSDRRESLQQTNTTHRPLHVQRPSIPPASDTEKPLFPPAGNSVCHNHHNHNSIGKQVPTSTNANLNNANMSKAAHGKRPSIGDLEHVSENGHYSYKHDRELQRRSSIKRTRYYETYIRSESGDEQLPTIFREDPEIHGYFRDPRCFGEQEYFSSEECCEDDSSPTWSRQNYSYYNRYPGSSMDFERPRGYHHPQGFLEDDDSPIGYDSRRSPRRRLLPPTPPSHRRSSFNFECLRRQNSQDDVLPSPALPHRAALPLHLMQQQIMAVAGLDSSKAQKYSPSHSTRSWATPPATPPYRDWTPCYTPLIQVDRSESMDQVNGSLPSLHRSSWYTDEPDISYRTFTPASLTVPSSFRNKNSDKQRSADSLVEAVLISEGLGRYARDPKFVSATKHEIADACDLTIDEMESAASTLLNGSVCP

Molecule	maximal chord conductance of Cav1.3L channels without vs. with Snapin2 in HEK-293 cells [1] [nS/pF]	average peak current amplitude at −10 mV of Cav1.3L/β3 with vs. without Snapin2 in Xenopus oocytes [2] [nA]	maximal chord conductance of Cav1.3L channels without vs. with Snapin2 in Xenopus oocytes [2] [μS]	maximal normalized chord conductance of Cav1.3L without or with Snapin1 in HEK-293 cells [3] [nS/pF]
rat Snapin2 (natural protein)	1.86	-2410	28.1	–
rat Snapin1 (natural protein) MAAAGSAAVSGAGTPVAGPTGRDLFAEGLLEFLRPAVQQLDSHVHAVRESQVELREQIDNLATELCRINEDQKVALDLDPYVKKLLNARRRVVLVNNILQNAQERLRRLNHSVAKETARRRAMLDSGVYPPGSPSK	–	–	–	2.09
